Laboratory results from publication PMC3418257.

Molecular target: glutathione-S-transferase coupled human VDR fusion protein (human) (UniProt P11473)
Experiment: pull-down; GSThVDR-Sepharose bead slurry as bait, [35S]-labelled in vitro translated RUNX2 as prey; PPI buffer (20 mM HEPES pH 7.9, 200 mM KCl, 1 mM EDTA, 4 mM MgCl2, 1 mM dithiothreitol, 0.1% Nonidet P-40, 10% glycerol), beads pre-blocked with BSA; with or without 1,25(OH)2D3; SDS-PAGE, autoradiography, densitometry

Chain of UniProt P11473 (P11473 whole entry, the tested form may be a part): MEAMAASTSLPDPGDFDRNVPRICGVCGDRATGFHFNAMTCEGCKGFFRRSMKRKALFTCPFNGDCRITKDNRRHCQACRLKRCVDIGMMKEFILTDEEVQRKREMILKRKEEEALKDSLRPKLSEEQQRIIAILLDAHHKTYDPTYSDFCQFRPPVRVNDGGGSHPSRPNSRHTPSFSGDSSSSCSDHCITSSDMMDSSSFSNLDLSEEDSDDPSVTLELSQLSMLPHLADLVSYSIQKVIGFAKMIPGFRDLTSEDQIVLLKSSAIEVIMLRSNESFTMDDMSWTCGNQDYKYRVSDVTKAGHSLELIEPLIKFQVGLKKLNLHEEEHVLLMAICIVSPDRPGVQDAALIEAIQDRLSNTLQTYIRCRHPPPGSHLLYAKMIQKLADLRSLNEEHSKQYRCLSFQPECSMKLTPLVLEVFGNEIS

percent of label recovered in pull down: 25%
Substance: human RUNX2 23Q wild type (natural protein)
